In one assay the target is T1, CTLA4-Fc (human, UniProt P16410 36-161, limits assumed).
T1 construct: not shown: Fc; not specified
The experiment in a line: ELISA: modified antibody (concentration on the axis) captured on SIRPa-His, then CTLA4-Fc, detected with mouse anti-human CTLA4 [panel CD86]. The source says:
(§1) FIG. 24. Ligand binding assay with the different modified anti-SIRPa antibodies by ELISA.

The target in assay [1] is T2, recombinant hSIRPa (Sino Biologicals, reference 11612-H08H) (human, UniProt P78324 31-370).
T2 construct: also called SIRPa-His; human SIRPa-His; not shown: His tag (histidine tail)
The experiment in a line: ELISA on immobilized SIRPa-His, peroxidase anti-human IgG, DO 450nm [panel CD86]. How it is done: (§2) Method: For ELISA assay, recombinant hSIRPa (Sino Biologicals, Beijing, China; reference 11612-H08H) was immobilized on plastic at 0.5 μg/ml in carbonate buffer (pH9.2) and different modified anti-SIRPa antibodies were added to measure binding to SIRPa.
On the technique in general: In an ELISA, binding on a coated surface is turned into a signal by an enzyme label.

In assay [2] the target is T2, recombinant hSIRPa (Sino Biologicals, …). Kind of assay: competition ELISA on coated SIRPa-His; competitor biotinylated CD47-Fc at 6 ug/ml, streptavidin-peroxidase [panel CD86]. The method, then:
Method: For competitive ELISA assay, recombinant hSIRPa (Sino Biologicals, Beijing, China; reference 11612-H08H) was immobilized on plastic at 0.5 μg/ml in carbonate buffer (pH9.2).

For assay [3] the target is unchanged. Kind of assay: ELISA on immobilized hSIRPa-His, anti-human IgG detection, second experiment; second experiment. How it is done:
Method: The binding activity of the anti-SIRPa antibodies was assessed by ELISA.

For assay [4] the target is unchanged. Kind of assay: ELISA on immobilized SIRPa-His, peroxidase anti-human IgG, DO 450nm [panel OX40L]. How it is done:
as §2

The next assay concerns the target T3, OX40Fc (human, UniProt P43489 29-216).
T3 construct: not shown: Fc; not specified
T3 sequence (looked up): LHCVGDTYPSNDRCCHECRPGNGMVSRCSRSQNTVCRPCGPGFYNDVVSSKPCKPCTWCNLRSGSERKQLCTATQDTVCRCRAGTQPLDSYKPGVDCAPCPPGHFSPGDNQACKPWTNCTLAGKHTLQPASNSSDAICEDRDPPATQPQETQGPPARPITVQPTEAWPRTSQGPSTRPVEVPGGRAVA
The experiment in a line: ELISA: modified antibody (concentration on the axis) captured on SIRPa-His, then OX40Fc, detected with mouse anti-human OX40 [panel OX40L].
Excerpt: as §1

The text below walks through data of US20210179728A1 (OSE IMMUNOTHERAPEUTICS, published 2021).

Usually EC50 (read off the curve) stands for the concentration that produces a half-maximal response. Usually EC50 stands for the concentration that produces a half-maximal response.

B1: modified anti-SIRPa HEFLB antibody with ECD of CD86 on the light chain (antibody, human IgG4 S228P, kappa)
heavy: not shown
light: DVVMTQSPLSLPVTLGQPASISCRSSQSLVHSYGNTYLYWFQQRPGQSPRLLIYRVSNRFSGVPDRFSGSGSGTDFTLKISRVEAEDVGVYYCFQGTHVPYTFGGGTKVEIKRTVAAPSVFIFPPSDEQLKSGTASVVCLLNNFYPREAKVQWKVDNALQSGNSQESVTEQDSKDSTYSLSSTLTLSKADYEKHKVYACEVTHQGLSSPVTKSFNRGECGGGGSGGGGSGGGGSAPLKIQAYFNETADLPCQFANSQNQSLSELVVFWQDQENLVLNEVYLGKEKFDSVHSKYMGRTSFDSDSWTLRLHNLQIKDKGLYQCIIHHKKPTGMIRIHQMNSELSVLANFSQPEIVPISNITENVYINLTCSSIHGYPEPKKMSVLLRTKNSTIEYDGVMQKSQDNVTELYDVSISLSVSFPDVTSNMTIFCILETDKTRLLSSPFSIELEDPQPPPDH
notes: as m32, ECD of CD86; also called VH+VLprot (CD86); HEF + LB-CD86
Take B1: the binding result in the assay with CTLA4-Fc was “binds”. For the same molecule, the “EC50 (read off the curve)” value in assay [1] is roughly 8 ng/mL. Moreover, in assay [2], the “IC50 (read off the curve)” value was roughly 200 ng/mL.

B2: HCLA (antibody, human IgG4 S228P, kappa, V domains shown)
VH: EVQLVQSGAEVKKPGESLRISCKASGYSFTSYWVHWVRQMPGKGLEWMGNIDPSDSDTHYSPSFQGHVTLSVDKSISTAYLQLSSLKASDTAMYYCVRGGTGTMAWFAYWGQGTLVTVSS
VL: DVVMTQSPLSLPVTLGQPASISCRSSQSLVHSYGNTYLYWYQQRPGQSPRLLIYRVSNRFSGVPDRFSGSGSGTDFTLKISRVEAEDVGVYFCFQGTHVPYTFGGGTKVEIKR
notes: humanized 18D5 variant; also called humanized 18D5 variant HCLA
Turning to B2, the EC50 in assay [3] turned out to be 5.6 ng/mL.

B3: modified anti-SIRPa HEFLB antibody with ECD of OX40L on the light chain (antibody, human IgG4 S228P, kappa)
heavy: not shown
light: DVVMTQSPLSLPVTLGQPASISCRSSQSLVHSYGNTYLYWFQQRPGQSPRLLIYRVSNRFSGVPDRFSGSGSGTDFTLKISRVEAEDVGVYYCFQGTHVPYTFGGGTKVEIKRTVAAPSVFIFPPSDEQLKSGTASVVCLLNNFYPREAKVQWKVDNALQSGNSQESVTEQDSKDSTYSLSSTLTLSKADYEKHKVYACEVTHQGLSSPVTKSFNRGECGGGGSGGGGSGGGGSQVSHRYPRIQSIKVQFTEYKKEKGFILTSQKEDEIMKVQNNSVIINCDGFYLISLKGYFSQEVNISLHYQKDEEPLFQLKKVRSVNSLMVASLTYKDKVYLNVTTDNTSLDDFHVNGGELILIHQNPGEFCVL
notes: as m32, ECD of OX40L; also called VH+VLprot (OX40L); HEF + LB-OX40L
As for B3, the binding result (in assay [4]; in the assay with OX40Fc) was “binds” in each case.

B4: modified anti-SIRPa HEFLB antibody with ECD of CD86 on the heavy chain (antibody, human IgG4 S228P, kappa)
heavy: not shown
light: DVVMTQSPLSLPVTLGQPASISCRSSQSLVHSYGNTYLYWFQQRPGQSPRLLIYRVSNRFSGVPDRFSGSGSGTDFTLKISRVEAEDVGVYYCFQGTHVPYTFGGGTKVEIKRTVAAPSVFIFPPSDEQLKSGTASVVCLLNNFYPREAKVQWKVDNALQSGNSQESVTEQDSKDSTYSLSSTLTLSKADYEKHKVYACEVTHQGLSSPVTKSFNRGEC
notes: as m25, ECD of CD86; also called VHprot+VL (CD86); VH-CD86
As for B4, the binding result with CTLA4-Fc was “binds”. Also, the “EC50 (read off the curve)” value in assay [1] was roughly 9 ng/mL. In addition, the “IC50 (read off the curve)” value in assay [2] is roughly 200 ng/mL.
